Experimental data published in publication PMC7589773.

Molecular target: AAV-DJ capsid viral protein (VP) subunit of the empty capsid (virus-like particle)
Assay: cryo-EM structure; empty AAV-DJ capsids (VLPs) in 50 mM HEPES, 25 mM MgCl2, 25 mM NaCl, pH 7.4; I1 symmetry imposed; 1.56 Å resolution

Q: For “AAV-DJ capsid viral protein (VP) subunit of the empty capsid (virus-like particle)”, which stoichiometry N is on record?
A: 60
